B1: "UDP-GlcNAc:betaGal beta-1,3-N-acetylglucosaminyltransferase 8" (Homo sapiens), Q7Z7M8 (parent)
chain: MRCPKCLLCLSALLTLLGLKVYIEWTSESRLSKAYPSPRGTPPSPTPANPEPTLPANLSTRLGQTIPLPFAYWNQQQWRLGSLPSGDSTETGGCQAWGAAAATEIPDFASYPKDLRRFLLSAACRSFPQWLPGGGGSQVSSCSDTDVPYLLLAVKSEPGRFAERQAVRETWGSPAPGIRLLFLLGSPVGEAGPDLDSLVAWESRRYSDLLLWDFLDVPFNQTLKDLLLLAWLGRHCPTVSFVLRAQDDAFVHTPALLAHLRALPPASARSLYLGEVFTQAMPLRKPGGPFYVPESFFEGGYPAYASGGGYVIAGRLAPWLLRAAARVAPFPFEDVYTGLCIRALGLVPQAHPGFLTAWPADRTADHCAFRNLLLVRPLGPQASIRLWKQLQDPRLQC
partner: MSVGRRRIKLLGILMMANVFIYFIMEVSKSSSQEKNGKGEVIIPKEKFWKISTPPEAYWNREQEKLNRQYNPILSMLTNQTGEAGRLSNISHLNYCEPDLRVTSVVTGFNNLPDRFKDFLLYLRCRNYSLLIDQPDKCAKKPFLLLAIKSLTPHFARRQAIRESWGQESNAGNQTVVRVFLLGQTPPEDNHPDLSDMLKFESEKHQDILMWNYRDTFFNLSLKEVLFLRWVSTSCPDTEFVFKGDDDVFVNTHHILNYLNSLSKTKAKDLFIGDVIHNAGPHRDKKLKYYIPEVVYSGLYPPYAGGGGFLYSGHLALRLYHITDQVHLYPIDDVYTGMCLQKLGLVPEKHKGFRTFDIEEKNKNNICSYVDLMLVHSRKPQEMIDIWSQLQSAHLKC
B2: N-acetyllactosaminide beta-1,3-N-acetylglucosaminyltransferase 2 (Homo sapiens), Q9NY97 (parent)
chain: B1 partner
partner: B1 chain

Variants of: B1
Conditions: with B3GNT2, Q9NY97

Variant | effect of a mutation on the interaction
MRCPKCLLCLSALLTLLGLKVYIEWTSESRLSKAYPSPRGTPPSPTPANPEPTLPANLSTRLGQTIPLPFAYWNQQQWRLGSLPSGDSTETGGCQAWGAAAATEIPDFASYPKDLRRFLLSAACRSFPQWLPGGGGSQVSSCSDTDVPYLLLAVKSEPGRFAERQAVRETWGSPAPGIRLLFLLGSPVGEAGPDLDSLVAWESRRYSDLLLWDFLDVPFNQTLKDLLLLAWLGRHCPTVSFVLRAADDAFVHTPALLAHLRALPPASARSLYLGEVFTQAMPLRKPGGPFYVPESFFEGGYPAYASGGGYVIAGRLAPWLLRAAARVAPFPFEDVYTGLCIRALGLVPQAHPGFLTAWPADRTADHCAFRNLLLVRPLGPQASIRLWKQLQDPRLQC [Q246A] | with no effect

Variants of: B2
Conditions: with B3GNT8, Q7Z7M8

Variant | effect of a mutation on the interaction
MSVGRRRIKLLGILMMANVFIYFIMEVSKSSSQEKNGKGEVIIPKEKFWKISTPPEAYWNREQEKLNRQYNPILSMLTNQTGEAGRLSNISHLNYCEPDLRVTSVVTGFNNLPDRFKDFLLYLRCRNYSLLIDQPDKCAKKPFLLLAIKSLTPHFARRQAIRESWGQESNAGNQTVVRVFLLGQTPPEDNHPDLSDMLKFESEKHQDILMWNYRDTFFNLSLKEVLFLRWVSTSCPDTEFVFKGADDVFVNTHHILNYLNSLSKTKAKDLFIGDVIHNAGPHRDKKLKYYIPEVVYSGLYPPYAGGGGFLYSGHLALRLYHITDQVHLYPIDDVYTGMCLQKLGLVPEKHKGFRTFDIEEKNKNNICSYVDLMLVHSRKPQEMIDIWSQLQSAHLKC [D245A] | with no effect
